Reference: paper PMC4376459, “CXCR3 antagonist VUF10085 binds to an intrahelical site distinct from that of the broad spectrum antagonist TAK-779” (British Journal of Pharmacology, 2015)
Where a chain is given by its changes, count along the chain named.

How the values were obtained:
Test in all cases: Whole-cell 125I-CXCL11 binding assay, L1.2 transfectants
CXCR3 I279A = biological target: T1, CXCR3 I279A (Homo sapiens, UniProt P49682, I279A); details: I279A, 0.1 nM 125I-CXCL11; read-out: IC50 ligand binding (mean ± SEM)
T1 construct: expressed in transfected cells; host or cells: murine pre-B cell line L1.2, transient transfection
T1 sequence (P49682 1-368 I279A): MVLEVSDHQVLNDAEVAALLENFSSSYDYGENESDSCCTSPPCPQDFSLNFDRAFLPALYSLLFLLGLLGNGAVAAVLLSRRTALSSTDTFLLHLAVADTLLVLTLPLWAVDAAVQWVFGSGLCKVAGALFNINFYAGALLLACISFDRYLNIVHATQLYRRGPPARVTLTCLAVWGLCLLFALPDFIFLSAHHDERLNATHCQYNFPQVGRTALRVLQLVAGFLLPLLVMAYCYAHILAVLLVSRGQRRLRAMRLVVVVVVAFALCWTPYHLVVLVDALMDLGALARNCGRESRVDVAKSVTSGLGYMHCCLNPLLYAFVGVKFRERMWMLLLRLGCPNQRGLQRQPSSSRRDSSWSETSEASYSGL

CXCR3 F207A = biological target: T2, CXCR3 F207A (Homo sapiens, UniProt P49682, F207A); details: maximum concentration of CXCL11
T2 construct: expressed in transfected cells; host or cells: murine pre-B cell line L1.2, transient transfection
T2 sequence (P49682 1-368 F207A): T1 sequence (P49682 1-368 I279A) with F207A, A279I
Procedure: (§1) A previously described pcDNA3 plasmid containing human wild type (WT) CXCR3 cDNA with an HA epitope tag encoded at the N terminus (Meiser et al., [2008]) was used as a template for the generation of point mutants by PCR using the QuikChange II site-directed mutagenesis kit (Stratagene, Amsterdam, the Netherlands). All constructs were verified by DNA sequencing (Eurofins MWG Operon, Ebersberg, Germany) before use. L1.2 cells were transiently transfected by electroporation with 1 μg of vector DNA/10^6 cells at 330V, 975μF and incubated overnight in medium supplemented with 10 mM of sodium butyrate to enhance gene expression.
(§2) Whole-cell binding assays on transiently transfected L1.2 cells were performed as described previously (Vaidehi et al., [2009]) using 0.1 nM ^125I-CXCL11 (Perkin Elmer) and increasing concentrations of unlabeled CXCL11 or antagonist. Cell-associated radioactivity was counted in a Canberra Packard Cobra 5010 gamma counter (Canberra Packard, Pangebourne, UK). Curve fitting and subsequent data analysis was carried out using the program PRISM (GraphPad Software, Inc., San Diego, CA, USA) and IC50 values were obtained by non-linear regression analysis. In all experiments, each data point was assayed in duplicate, with each individual experiment repeated three times. Background binding levels obtained in the presence of a 1000–3000 molar excess of unlabelled chemokine were subtracted from each data point and data are presented as the percentage of counts obtained in the absence of competing ligand. KD values and the number of binding sites per cell were calculated from homologous binding curves prepared in Graph Pad Prism (La Jolla, CA, USA) as previously described (Nedjai et al., [2011]).

CXCR3 N132A = biological target: T3, CXCR3 N132A (Homo sapiens, UniProt P49682, N132A); details: maximum concentration of CXCL11
T3 construct: expressed in transfected cells; host or cells: murine pre-B cell line L1.2, transient transfection
T3 sequence (P49682 1-368 N132A): T1 sequence (P49682 1-368 I279A) with N132A, A279I
Procedure: as §1, §2

CXCR3 Y271A = biological target: T4, CXCR3 Y271A (Homo sapiens, UniProt P49682, Y271A); details: maximum concentration of CXCL11
T4 construct: expressed in transfected cells; host or cells: murine pre-B cell line L1.2, transient transfection
T4 sequence (P49682 1-368 Y271A): T1 sequence (P49682 1-368 I279A) with Y271A, A279I
Procedure: as §1, §2

| IC50 (CXCR3 I279A) [µM] | displacement of 125I-CXCL11 by unlabelled CXCL11 (CXCR3 F207A) | displacement of 125I-CXCL11 by unlabelled CXCL11 (CXCR3 N132A) | displacement of 125I-CXCL11 by unlabelled CXCL11 (CXCR3 Y271A) | Compound |
| --- | --- | --- | --- | --- |
| 39.4 ± 15 | – | – | – | Cc1ccc(-c2ccc3c(c2)C=C(C(=O)Nc2ccc(C[N+](C)(C)C4CCOCC4)cc2)CCC3)cc1.[Cl-] [TAK-779, N,N-dimethyl-N-[4-[[[2-(4-methylphenyl)-6,7-dihydro-5H-benzocyclohepten-8-yl]-carbonyl]amino]benzyl] tetrahydro-2H-pyran-4-aminium chloride] |
| – | unable to displace 50% | unable to displace 50% | unable to displace 50% | CXCL11: recombinant human chemokine, CXCR3 agonist, purchased from PeproTech |
